What all share (assay): cell-based or functional assay
Test [1] concerns the target T1, baculovirus derived recombinant human full length Chk1 with histidine tag (human, UniProt O14757 1-476).
T1 sequence: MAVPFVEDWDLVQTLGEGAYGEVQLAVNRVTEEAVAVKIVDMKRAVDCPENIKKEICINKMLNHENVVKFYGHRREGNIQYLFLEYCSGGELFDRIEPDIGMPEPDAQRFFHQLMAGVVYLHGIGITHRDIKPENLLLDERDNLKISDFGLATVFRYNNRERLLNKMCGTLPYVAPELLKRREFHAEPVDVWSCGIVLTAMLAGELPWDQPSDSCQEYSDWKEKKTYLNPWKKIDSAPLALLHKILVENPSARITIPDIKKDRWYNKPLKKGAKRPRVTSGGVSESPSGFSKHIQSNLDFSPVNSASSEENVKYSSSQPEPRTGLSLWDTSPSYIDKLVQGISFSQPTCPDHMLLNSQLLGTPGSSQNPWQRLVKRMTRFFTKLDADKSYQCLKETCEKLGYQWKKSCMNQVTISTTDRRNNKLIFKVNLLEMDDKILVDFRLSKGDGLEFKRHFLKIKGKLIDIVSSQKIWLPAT

Test [2] deals with E. Coli derived recombinant human full length Chk2 fused with GST (human, UniProt O96017 1-543).
A further test addresses PKA.
Another test concerns the target purified CHK2 kinase.

From patent US20170112894A1 (CANBAS, published 2017) come the findings set out here.

Square brackets hold non-standard residues; d marks the D form. Ends that are not written are not given here. dPhe(4-NO2) = N[C@H](Cc1ccc([N+](=O)[O-])cc1)C(=O)O; dPhe(F5) = N[C@H](Cc1c(F)c(F)c(F)c(F)c1F)C(=O)O; dBpa = N[C@H](Cc1ccc(C(=O)c2ccccc2)cc1)C(=O)O; dCha = N[C@H](CC1CCCCC1)C(=O)O

E. Coli derived recombinant human full length Chk2 fused with GST, sequence (O96017 whole entry, the tested form may be a part): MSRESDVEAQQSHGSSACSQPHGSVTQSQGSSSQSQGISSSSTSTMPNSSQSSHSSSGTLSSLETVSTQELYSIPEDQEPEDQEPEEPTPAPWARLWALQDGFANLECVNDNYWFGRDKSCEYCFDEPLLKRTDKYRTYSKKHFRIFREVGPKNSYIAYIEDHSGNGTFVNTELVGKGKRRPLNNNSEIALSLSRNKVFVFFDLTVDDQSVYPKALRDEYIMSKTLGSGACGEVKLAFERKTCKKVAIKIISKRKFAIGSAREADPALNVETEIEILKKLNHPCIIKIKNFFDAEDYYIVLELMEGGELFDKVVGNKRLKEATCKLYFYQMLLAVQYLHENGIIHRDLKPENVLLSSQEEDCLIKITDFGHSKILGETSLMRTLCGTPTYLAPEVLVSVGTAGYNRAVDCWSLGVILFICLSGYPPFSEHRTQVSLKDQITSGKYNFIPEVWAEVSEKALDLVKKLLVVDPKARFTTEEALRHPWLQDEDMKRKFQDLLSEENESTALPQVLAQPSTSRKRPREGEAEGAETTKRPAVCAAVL

As for [dBpa][dS][dW][dS][dPhe(F5)][dCha][dR][dR][dR][dQ][dR][dR] [CBP501], the “Kinase inhibition (phosphorylation of serine 216 on GST-Cdc25C 167-267, enzyme linked immune assay)” value was determined as 7.9 in test [1] and 18.6 in test [2].
For [dBpa][dD][dS][dW][dS][dPhe(F5)][dCha][dR][dR][dR][dQ][dR][dR] [CBP505], the “Kinase inhibition (phosphorylation of serine 216 on GST-Cdc25C 167-267, enzyme linked immune assay)” value in test [1] is 63.4; in test [2], greater than 100.
Regarding [dY][dY][dS]G[dS][dR][dPhe(F5)][dCha][dR][dR][dR][dQ][dR][dR][dK][dK][dR]G[dY] [CBP450], the “IC50, kinase inhibition (PepTag Non-Radioactive Protein Kinase Assay)” value in the test with PKA is greater than 400 µM; with purified CHK2 kinase, 10 µM.

B1: CBP440 (peptide)
peptide: YGRKKRRQRRRXFXYY
modifications: (l-Tyr)(l-Gly)(l-Arg)(l-Lys)(l-Lys)(l-Arg)(l-Arg)(l-Gln)(l-Arg)(l-Arg)(l-Arg)(l-Cha)(l-Phe-2,3,4,5,6-F)(l-aminoundecanoic acid)(l-Tyr)(l-Tyr): Cha = cyclohexyl-alanine; Phe-2,3,4,5,6-F = pentafluoro-phenylalanine; aminoundecanoic acid spacer
In the case of B1, the “IC50, kinase inhibition (PepTag Non-Radioactive Protein Kinase Assay)” value was determined as 180 µM with PKA and 8 µM in the test with purified CHK2 kinase.
Consider [dY][dBpa][dS][dW][dS][dPhe(F5)][dCha][dR][dR][dR][dQ][dR][dR] [CBP500], for which the “Kinase inhibition (phosphorylation of serine 216 on GST-Cdc25C 167-267, enzyme linked immune assay)” value in test [1] came to 5.6; in test [2], 8.
[dBpa][dS][dW][dS][dPhe(4-NO2)][dCha][dR][dR][dR][dQ][dR][dR] [CBP603]: the results for the “Kinase inhibition (phosphorylation of serine 216 on GST-Cdc25C 167-267, enzyme linked immune assay)” value in test [1] and in test [2] were 15.5 and 18.1, respectively.
